Measurements from US20150005237A1 (UNIVERSIT T INNSBRUCK, published 2015).

B1: Phosphoinositide-dependent kinase 1 (PDK1) fused to Venus YFP PCA fragment F[1] (enzyme, UniProt Q9Z2A0 1-559, looked up)
chain: MARTTSQLYDAVPIQSSVVLCSCPSPSMVRSQTEPGSSPGIPSGVSRQGSTMDGTTAEARPSTNPLQQHPAQLPPQPRKKRPEDFKFGKILGEGSFSTVVLARELATSREYAIKILEKRHIIKENKVPYVTRERDVMSRLDHPFFVKLYFTFQDDEKLYFGLSYAKNGELLKYIRKIGSFDETCTRFYTAEIVSALEYLHGKGIIHRDLKPENILLNEDMHIQITDFGTAKVLSPESKQARANSFVGTAQYVSPELLTEKSACKSSDLWALGCIIYQLVAGLPPFRAGNEYLIFQKIIKLEYHFPEKFFPKARDLVEKLLVLDATKRLGCEEMEGYGPLKAHPFFETITWENLHQQTPPKLTAYLPAMSEDDEDCYGNYDNLLSQFGFMQVSSSSSSHSLSTVETSLPQRSGSNIEQYIHDLDTNSFELDLQFSEDEKRLLLEKQAGGNPWHQFVENNLILKMGPVDKRKGLFARRRQLLLTEGPHLYYVDPVNKVLKGEIPWSQELRPEAKNFKTFFVHTPNRTYYLMDPSGNAHKWCRKIQEVWRQQYQSNPDAAVQ
notes: Prey fused to F[1]; not shown: Venus variant of yellow fluorescent protein (YFP), N-terminal fragment F[1], amino acids 1-158
B2: Gαi3 fused to Venus YFP PCA fragment F[1] (other, UniProt Q9DC51 1-354, looked up)
chain: MGCTLSAEDKAAVERSKMIDRNLREDGEKAAKEVKLLLLGAGESGKSTIVKQMKIIHEDGYSEDECKQYKVVVYSNTIQSIIAIIRAMGRLKIDFGESARADDARQLFVLAGSAEEGVMTSELAGVIKRLWRDGGVQACFSRSREYQLNDSASYYLNDLDRISQTNYIPTQQDVLRTRVKTTGIVETHFTFKELYFKMFDVGGQRSERKKWIHCFEGVTAIIFCVALSDYDLVLAEDEEMNRMHESMKLFDSICNNKWFTDTSIILFLNKKDLFEEKIKRSPLTICYPEYTGSNTYEEAAAYIQCQFEDLNRRKDTKEVYTHFTCATDTKNVQFVFDAVTDVIIKNNLKECGLY
notes: Prey fused to F[1]; also called Gαi isoform 3 prey; not shown: Venus variant of yellow fluorescent protein (YFP), N-terminal fragment F[1], amino acids 1-158
B3: Gαi2 fused to Venus YFP PCA fragment F[1] (other, UniProt P08752 1-355, looked up)
chain: MGCTVSAEDKAAAERSKMIDKNLREDGEKAAREVKLLLLGAGESGKSTIVKQMKIIHEDGYSEEECRQYRAVVYSNTIQSIMAIVKAMGNLQIDFADPQRADDARQLFALSCAAEEQGMLPEDLSGVIRRLWADHGVQACFGRSREYQLNDSAAYYLNDLERIAQSDYIPTQQDVLRTRVKTTGIVETHFTFKDLHFKMFDVGGQRSERKKWIHCFEGVTAIIFCVALSAYDLVLAEDEEMNRMHESMKLFDSICNNKWFTDTSIILFLNKKDLFEEKITQSSLTICFPEYTGANKYDEAASYIQSKFEDLNKRKDTKEIYTHFTCATDTKNVQFVFDAVTDVIIKNNLKDCGLF
notes: Prey fused to F[1]; also called Gαi isoform 2 prey; not shown: Venus variant of yellow fluorescent protein (YFP), N-terminal fragment F[1], amino acids 1-158

Tests used:
[1] = target: T1, PKA catalytic subunit (mouse, type α, PKAc) fused to Venus YFP PCA fragment F[2] (mouse, UniProt P05132 1-351); assay: Venus YFP protein-fragment complementation assay in cells
[2] = target: T2, PKA regulatory subunit RIIβ (rat, type IIβ) fused to Venus YFP PCA fragment F[2] (rat, UniProt P12369 1-416); assay: Venus YFP protein-fragment complementation assay in COS7 cells
T2 construct: Expressed in COS7 or HEK293 cells from pcDNA3.1; also called RIIβ-F[2]; RegIIβ; not shown: Venus variant of yellow fluorescent protein (YFP), C-terminal fragment F[2], amino acids 159-239
T2 sequence (P12369 other isoform, or with tags, fused parts or gaps): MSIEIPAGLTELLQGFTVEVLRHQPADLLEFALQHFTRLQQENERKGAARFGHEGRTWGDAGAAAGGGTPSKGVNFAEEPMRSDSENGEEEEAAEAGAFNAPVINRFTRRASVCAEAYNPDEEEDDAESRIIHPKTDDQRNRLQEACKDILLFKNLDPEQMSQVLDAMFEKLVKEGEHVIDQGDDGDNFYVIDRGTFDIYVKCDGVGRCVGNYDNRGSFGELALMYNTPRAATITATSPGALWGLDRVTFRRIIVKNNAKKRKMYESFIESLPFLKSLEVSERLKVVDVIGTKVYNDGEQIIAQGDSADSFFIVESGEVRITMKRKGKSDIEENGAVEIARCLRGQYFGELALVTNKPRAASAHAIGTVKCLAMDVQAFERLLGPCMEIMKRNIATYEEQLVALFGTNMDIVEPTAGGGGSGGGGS

[3] = target: T1, PKA catalytic subunit (mouse, type α, …); assay: as above

Binder	binding result [1]	binding result [2]	binding result [3]
B1	binds	–	–
B2	–	binds	no binding
B3	–	binds	no binding
